From US11844843 (DYNE THERAPEUTICS, dated 2023) come the findings set out here.

Assay [1] has as its target T1, recombinant human TfR1 (transferrin receptor protein 1) (human, UniProt P02786 89-760).
T1 construct: Recombinant protein in SPR and ELISA; they were assigned to this molecule; also called hTfR1; huTfR1
In words: Avg KD, antibody alone; method not stated in Table 11.

Assay [2] deals with T2, recombinant cynomolgus monkey (Macaca fascicularis) TfR1 (cynomolgus monkey (Macaca fascicularis), UniProt Q5RDH6 87-760 (Pongo abelii entry), limits assumed).
T2 construct: Recombinant protein; also called cTfR1; cyTfR1
T2 chain: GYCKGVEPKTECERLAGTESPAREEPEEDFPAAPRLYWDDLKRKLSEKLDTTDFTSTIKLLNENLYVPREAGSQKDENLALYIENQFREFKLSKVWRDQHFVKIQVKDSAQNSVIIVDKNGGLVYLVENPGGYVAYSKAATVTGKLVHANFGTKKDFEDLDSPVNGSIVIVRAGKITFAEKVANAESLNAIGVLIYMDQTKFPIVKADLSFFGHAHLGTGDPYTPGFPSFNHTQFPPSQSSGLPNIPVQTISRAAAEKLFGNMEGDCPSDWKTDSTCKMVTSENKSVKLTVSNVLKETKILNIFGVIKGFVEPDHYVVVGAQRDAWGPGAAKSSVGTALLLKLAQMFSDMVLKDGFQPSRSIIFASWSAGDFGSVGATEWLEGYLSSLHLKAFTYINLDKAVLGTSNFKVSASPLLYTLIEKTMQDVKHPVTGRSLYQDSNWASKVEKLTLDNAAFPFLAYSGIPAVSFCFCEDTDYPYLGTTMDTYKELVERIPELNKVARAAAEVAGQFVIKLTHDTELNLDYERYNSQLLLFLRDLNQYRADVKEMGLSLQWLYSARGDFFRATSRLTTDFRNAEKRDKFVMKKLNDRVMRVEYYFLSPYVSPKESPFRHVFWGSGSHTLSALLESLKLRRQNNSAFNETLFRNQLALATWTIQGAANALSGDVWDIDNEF
The assay is described as above.

The target in assay [3] is T1, recombinant human TfR1 (transferrin …). Nature of the assay: Carterra LSA SPR, 25 C; IgG captured, hTfR1 as analyte; 1:1 fit. On the procedure: Selected anti-TfR1 antibodies were tested for their binding affinity to human TfR1 for measurement of Ka (association rate constant). Kd (dissociation rate constant), and K_D (affinity). […] The binding experiment was performed on Carterra LSA at 25° C. An anti-mouse IgG and anti-human IgG antibody "lawn" was prepared on a HC30M chip by amine coupling. The IgGs were captured on the chip. Dilution series of hTfR1, cyTfR1, and hTfR2 were injected to the chip for binding (starting from 1000 nM, 1:3 dilution, 8 concentrations).
Binding data were referenced by subtracting the responses from a buffer analyte injection and globally fitting to a 1:1 Langmuir binding model for estimate of Ka (association rate constant), Kd (dissociation rate constant), and K_D (affinity) using the Carterra™ Kinetics software, 5-6 concentrations were used for curve fitting.

Assay [4] has the same target. Nature of the assay: Table 14, Fab-ASO300 conjugate; method not named.
Assay [5] has as its target T2, recombinant cynomolgus monkey (Macaca …). Nature of the assay: Table 14, Fab-ASO300 conjugate; method not named.
Assay [6] concerns the target T1, recombinant human TfR1 (transferrin …). Nature of the assay: ELISA on hTfR1, Fab conjugated to DMPK-targeting oligonucleotide, % normalized RFUs. For orientation: ELISA stands for enzyme-linked immunosorbent assay.
In assay [7] the target is T2, recombinant cynomolgus monkey (Macaca …). Nature of the assay: ELISA on cTfR1, Fab conjugated to DMPK-targeting oligonucleotide, % normalized RFUs.
Assay [8] concerns the target T1, recombinant human TfR1 (transferrin …). Nature of the assay: ELISA, recombinant TfR1 coated, Fab-ASO300 conjugate (row 'Conjugate binding affinity ELISA').
Assay [9] concerns the target T2, recombinant cynomolgus monkey (Macaca …). The assay is described as above.
In assay [10] the target is T1, recombinant human TfR1 (transferrin …). In words: ELISA on hTfR1, Fab conjugated to DMPK-targeting oligonucleotide, % normalized RFUs. The source holds these as a separate data set.
The target in assay [11] is T2, recombinant cynomolgus monkey (Macaca …). In words: ELISA on cTfR1, Fab conjugated to DMPK-targeting oligonucleotide, % normalized RFUs.

B1: 5-H12 mouse monoclonal anti-TfR antibody (antibody, V domains shown)
VH: QIQLQQSGPELVRPGASVKISCKASGYSFTDYCINWVNQRPGQGLEWIGWIYPGSGNTRYSERFKGKATLTVDTSSNTAYMQLSSLTSEDSAVYFCAREDYYPYHGMDYWGQGTSVTVSS
VL: DIVLTQSPTSLAVSLGQRATISCRASESVDGYDNSFMHWYQQKPGQPPKLLIFRASNLESGIPARFSGSGSRTDFTLTINPVEAADVATYYCQQSSEDPWTFGGGTKLEIK
notes: Mouse monoclonal IgG
As a reminder, the Kd is the concentration at which binding is half-saturated. The kon is a measure of how fast the partners come together. As for B1, the Kd is 202 nM in assay [1], 12 nM in assay [2] and 208 nM in assay [3]. In addition, the kon in assay [3] turned out to be 66700 M⁻¹ s⁻¹.

B2: conjugate of humanized anti-TfR Fab 3A4 VH3 (N54S)/Vκ4 with DMPK-targeting oligonucleotide ASO300 (Fab, V domains shown)
VH: EVQLVQSGSELKKPGASVKVSCTASGFNIKDDYMYWVRQPPGKGLEWIGWIDPESGDTEYASKFQDRVTVTADTSTNTAYMELSSLRSEDTAVYYCTLWLRRGLDYWGQGTLVTVSS
VL: DIVMTQSPLSLPVTPGEPASISCRSSKSLLHSNGYTYLFWFQQRPGQSPRLLIYRMSNLASGVPDRFSGSGSGTDFTLKISRVEAEDVGVYYCMQHLEYPFTFGGGTKVEIKR
modifications: oligonucleotide ASO300 conjugated to the Fab via linker; residue and chain not stated
notes: also called 3A4 (VH3-N54S/Vk4) conjugate
A word on the EC50: it is the concentration that produces a half-maximal response. Turning to B2, the “DMPK oligo conjugate binding” value is 2.71 nM in assay [4] and 4.1 nM in assay [5]. Also, the EC50 in assay [6] was found to be 3.6 nM; in assay [7], 5.7 nM; in [8], 2.9 nM; in assay [9], 7.8 nM.

B3: conjugate of humanized anti-TfR Fab 3A4 VH3 (N54T)/Vκ4 with DMPK-targeting oligonucleotide ASO300 (Fab, V domains shown)
VH: EVQLVQSGSELKKPGASVKVSCTASGFNIKDDYMYWVRQPPGKGLEWIGWIDPETGDTEYASKFQDRVTVTADTSTNTAYMELSSLRSEDTAVYYCTLWLRRGLDYWGQGTLVTVSS
VL: DIVMTQSPLSLPVTPGEPASISCRSSKSLLHSNGYTYLFWFQQRPGQSPRLLIYRMSNLASGVPDRFSGSGSGTDFTLKISRVEAEDVGVYYCMQHLEYPFTFGGGTKVEIKR
modifications: oligonucleotide ASO300 conjugated to the Fab via linker; residue and chain not stated
notes: also called 3A4 (VH3-N54T/Vk4) conjugate
On to B3, for which the “DMPK oligo conjugate binding” value stood at 2.22 nM in assay [4] and 5.12 nM in [5]. In addition, the EC50 in assay [6] is 3.3 nM; in assay [7], 5.8 nM; in assay [8], 2.8 nM; in assay [9], 4.7 nM.

B4: conjugate of humanized anti-TfR Fab 3M12 VH4/Vκ3 with DMPK-targeting oligonucleotide ASO300 (Fab, V domains shown)
VH: QVQLQESGPGLVKPSQTLSLTCTVTGYSITSGYYWNWIRQPPGKGLEWIGYITFDGANNYNPSLKNRVSISRDTSKNQFSLKLSSVTAEDTATYYCTRSSYDYDVLDYWGQGTTVTVSS
VL: DIQMTQSPSSLSASVGDRVTITCRASQDISNFLNWYQQKPGQPVKLLIYYTSRLHSGVPSRFSGSGSGTDFTLTISSLQPEDFATYYCQQGHTLPYTFGQGTKLEIKR
modifications: oligonucleotide ASO300 conjugated to the Fab via linker; residue and chain not stated
notes: also called 3M12 (VH4/Vk3) conjugate
On to B4, for which the results for the “DMPK oligo conjugate binding” value in assay [4] and in [5] were 1.18 nM and 1.85 nM, respectively. Also, the EC50 amounted to 1.7 nM in assay [10], 2.1 nM in assay [11], 1.7 nM in assay [8] and 2.1 nM in assay [9].

B5: conjugate of humanized anti-TfR Fab 3M12 VH3/Vκ2 with DMPK-targeting oligonucleotide ASO300 (Fab, V domains shown)
VH: QVQLQESGPGLVKPSQTLSLTCSVTGYSITSGYYWNWIRQPPGKGLEWMGYITFDGANNYNPSLKNRVSISRDTSKNQFSLKLSSVTAEDTATYYCTRSSYDYDVLDYWGQGTTVTVSS
VL: DIQMTQSPSSLSASVGDRVTITCRASQDISNFLNWYQQKPGQPVKLLIYYTSRLHSGVPSRFSGSGSGTDFTLTISSLQPEDFATYFCQQGHTLPYTFGQGTKLEIKR
modifications: oligonucleotide ASO300 conjugated to the Fab via linker; residue and chain not stated
notes: also called 3M12 (VH3/Vk2) conjugate
As for B5, the “DMPK oligo conjugate binding” value in assay [4] worked out at 1.14 nM; in assay [5] it was 2.26 nM. Further, the EC50 stood at 2.2 nM in [10], 2.9 nM in assay [11], 2.2 nM in assay [8] and 2.9 nM in assay [9].
